Earlier results on one substance are cited in PMC7194015, “Proline-Rich Antimicrobial Peptides in Medicinal Maggots of Lucilia sericata Interact With Bacterial DnaK But Do Not Inhibit Protein Synthesis” (Frontiers in Pharmacology, 2020).

For orientation: Kd means a measure of binding affinity in units of concentration.

The target of the data set is DnaK (Escherichia coli) (UniProt P0A6Y8).
DnaK (Escherichia coli), sequence (P0A6Y8 2-638): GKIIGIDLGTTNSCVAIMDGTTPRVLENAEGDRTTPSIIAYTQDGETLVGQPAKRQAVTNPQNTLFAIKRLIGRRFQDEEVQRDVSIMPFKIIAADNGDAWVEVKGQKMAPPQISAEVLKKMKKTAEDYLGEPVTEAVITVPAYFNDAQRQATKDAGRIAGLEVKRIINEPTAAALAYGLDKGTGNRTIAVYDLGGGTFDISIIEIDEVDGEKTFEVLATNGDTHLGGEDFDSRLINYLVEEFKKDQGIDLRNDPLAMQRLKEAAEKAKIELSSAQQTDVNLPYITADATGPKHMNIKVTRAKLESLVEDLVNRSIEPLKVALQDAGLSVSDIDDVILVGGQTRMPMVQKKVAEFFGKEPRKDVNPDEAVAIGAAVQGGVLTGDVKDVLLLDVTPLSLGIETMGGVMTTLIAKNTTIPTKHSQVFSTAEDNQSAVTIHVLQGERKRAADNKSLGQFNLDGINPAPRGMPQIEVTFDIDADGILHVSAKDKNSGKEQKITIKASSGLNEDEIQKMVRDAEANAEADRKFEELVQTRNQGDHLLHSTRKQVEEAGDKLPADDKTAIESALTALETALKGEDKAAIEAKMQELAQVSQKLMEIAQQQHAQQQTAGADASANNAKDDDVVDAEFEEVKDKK

abaecin, sequence (P81463 whole entry): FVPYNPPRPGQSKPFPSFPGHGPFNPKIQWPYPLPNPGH

Regarding abaecin (from UniProt P81463), the Kd is 100 nM.
